The values that follow come from US20240240160A1, “NOVEL OLIVETOL SYNTHASES FOR C[…]” (priority 2021, published 2024).

Data set [1] deals with QDX46968.1 from Anoectochilus roxburghii (SEQ ID NO:6). The experiment in a line: Product inhibition assay with butyryl-CoA and malonyl-CoA. The class given is biochemical. Conditions: increasing concentrations of the added product. The procedure: (§1) Assays were performed in a total volume of 50 μL in 100 mM Tris, pH 7.5 buffer containing 100 μM malonyl-CoA; 100 µM hexanoyl-CoA; a malonyl-CoA regenerating system comprising malonyl-CoA synthetase, excess malonate, and ATP; and excess purified olivetolic acid cyclase (OAC). The major product in this assay was olivetolic acid (OLA), and the triketide pentyl diacetic acid lactone (PDAL) was a side product. N-His-tagged purified enzymes were assayed under these assay conditions at enzyme concentrations and reaction times suitable for initial rate measurements of product formation. Reactions were initiated by addition of the PKS, then incubated for 30 min. Subsequently, 10 μL of reaction solution was removed and quenched into 15 volumes of 75% acetonitrile containing 0.1% formic acid and internal standards, then centrifuged to pellet denatured protein. Supernatants were transferred to fresh plates for LC-MS analysis of OLA, olivetol (OL), and PDAL as described in the Method section above.
(§2) Assays were performed as described in Example 3 with the following exception: instead of hexanoyl-CoA (C6), butyryl-CoA (C4) was used as substrate along with malonyl-CoA, in order to evaluate the inhibitory effect of the products with hexanoyl-CoA (i.e., OLA, OL and PDAL) on the activity of the enzymes. Accordingly, the products in this assay were the tetraketides divarinic acid (DVA) and divarinol (DVL) and the triketide propyl diacetic acid lactone (propyl-DAL) (see FIG. 4). The rates to form these products were measured in the presence of various concentrations of OLA, OL, and PDAL.

For data set [2], the system named is AAZ32094.1 from Oncidium hybrid cultivar (SEQ ID NO:2). Described as above. The class given is biochemical. The settings on record: increasing concentrations of the added product. The procedure: as §1, §2
The target in the next data set is T1, OLS from C. sativa (Cannabis sativa, UniProt B1Q2B6).
T1 construct: made in house
T1 sequence (B1Q2B6 1-385): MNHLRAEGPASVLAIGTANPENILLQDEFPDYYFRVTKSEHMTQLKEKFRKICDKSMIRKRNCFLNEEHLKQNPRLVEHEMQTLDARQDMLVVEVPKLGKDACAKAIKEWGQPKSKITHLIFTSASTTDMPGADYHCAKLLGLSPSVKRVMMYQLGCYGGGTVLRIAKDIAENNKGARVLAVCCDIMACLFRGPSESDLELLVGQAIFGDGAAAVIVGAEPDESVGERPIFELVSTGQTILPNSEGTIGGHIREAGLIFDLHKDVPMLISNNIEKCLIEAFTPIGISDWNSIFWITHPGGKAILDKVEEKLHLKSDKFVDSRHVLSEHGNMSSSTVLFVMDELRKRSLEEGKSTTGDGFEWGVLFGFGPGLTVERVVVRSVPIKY
Described as above. Conditions: increasing concentrations of the added product. It counts as biochemical. On the procedure: as §1, §2

Data set [3] relates to hexanoyl-CoA and malonyl-CoA. Nature of the data set: Specific activity assay of purified type-III polyketide synthases (OLA formation in presence of OAC). The class given is biochemical. The settings on record: hexanoyl-CoA and malonyl-CoA in the presence of OAC; FIG. 3. The procedure: In this Example, the specific activities of three previously uncharacterized type-III polyketide synthases (PKS) to form olivetolic acid from hexanoyl-CoA and malonyl-CoA in the presence of olivetolic acid cyclase (OAC) were determined and compared to the olivetol synthase (OLS) from C. sativa.
as §1

For data set [4], the system named is E. coli derivative strain which overexpressed an acyl-CoA synthetase (fadD) gene and expressed an olivetolic acid cyclase (OAC) from Cannabis sativa. Nature of the data set: OL, OLA and PDAL production in E. coli from plasmid-expressed Type-III PKS genes. It counts as cell-based. The settings on record: gene on plasmid; for Total: OL + OLA + PDAL; for OL / OLA / PDAL: constitutive promoter, culture spiked with 4 mM hexanoic acid. In short, it runs like this: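 E. coli strains expressing codon-optimized Type-III PKS genes (constitutive promoter) plus fadD overexpression and C. sativa OAC, grown at 32° C in P-minimal medium with 2% glucose, spiked with 4 mM hexanoic acid; harvested 3 h or 21 h post-spike. Butyl acetate extracts BSTFA-derivatized, OLA/OL/PDAL quantified by GC-FID.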

Data set [5] shares this test system. Nature of the data set: OL, OLA and PDAL production in E. coli from genome-integrated Type-III PKS genes. The class given is cell-based. Conditions: for Total: OL + OLA + PDAL; for OL / OLA / PDAL: constitutive promoter, 4 mM hexanoic acid. The procedure: To test olivetolic acid production in E. coli, strains comprising a putative OLS gene and an OAC gene from C. sativa were inoculated in multi-well plates containing LB supplemented with 1% glucose and appropriate concentrations of antibiotics. After 6 hours of cultivation at 32° C., the cells were transferred with a 10% inoculum to a P-limited seed medium (see Table 2) and cultivated for ˜18 hours at 32° ° C. to reach an OD of 2.0-4.0. The cultures were transferred with a 20% inoculum in a P-minimal medium (see Table 3) supplemented with 2% glucose and appropriate concentrations of antibiotics. After 3 hours of cultivation at 32° C., the culture was spiked with 4 mM hexanoic acid (˜OD 1.5-2.0). The resulting cultures were then harvested at either 3 hours or 21 hours post hexanoic acid spike; a final OD was taken. 300 μL of butyl acetate containing 500 mg/L undecanoic acid was added to each multi-well plate. The plates were then vortexed for 30 minutes at 1500 rpm and centrifuged for 10 minutes at 4500 rpm. 50 μL of organic layer was transferred to a 96-well plate and derivatized with 50 μL of N,O-Bis(trimethylsilyl)trifluoroacetamide (BSTFA). The plate was then incubated at room temperature for 2 hours to allow for complete derivatization. The samples were then run on GC-FID for analytical quantification of olivetolic acid (OLA), olivetol (OL), PDAL, and hexanoic acid.
Olivetol, PDAL, OLA, HTAL, CBGA and combinations thereof were analyzed by LCMS or LCMS/MS methods using C18 reversed phase chromatography coupled to either EXACTIVE™ (ThermoFisher) or QTRAP® 4500 (Sciex) mass spectrometers.
For reversed phase LCMS, compounds were identified by their LC retention times and MRM transitions specific to the compounds. LCMS/MS analysis was conducted on a Shimadzu UHPLC system coupled with AB Sciex QTRAP 4500 mass spectrometer. Agilent Eclipse XDB C18 column (4.6×3.0 mm, 1.8 μm) was used with a 1-min gradient elution at 1 mL/min using water containing 0.1% ammonia acetate as mobile phase A and 90% methanol containing 0.1% ammonia acetate as mobile phase B. The LC column temperature was maintained at 45° C. Negative ionization mode was used for all the analytes.
Three of the type-III PKS genes from Example 1 were integrated under control of a constitutive promoter into an E. coli derivative strain which overexpressed an acyl-CoA synthetase (fadD) gene and expressed an olivetolic acid cyclase (OAC) from Cannabis sativa.
The in vivo assay procedure and analytical methods were performed as described above.

In data set [6] the test system is hexanoyl-CoA or butyryl-CoA. Nature of the data set: High-throughput activity assay of OLS_Aro and its variants in cell lysate. The class given is biochemical. The settings on record: in the absence of Olivetolic acid Cyclase (OAC). The text has this:
Single amino acid positions of interest of OLS_Aro were identified based on a 7 Å radial proximity around the active site predicted based on docking results with the tetraketide product into a structural homology model of OLS_Aro. Variants were constructed as a plasmid-based library using specific primers at the positions undergoing mutagenesis, amplifying fragments via Polymerase Chain Reaction (PCR), and circularizing plasmids via Gibson ligation. For site-saturation mutagenesis of selected amino acids sites, a compressed-codon approach was used to eliminate codon redundancy to lower library size. The plasmid-base used was the pZS*vector (Novagen) with expression of the OLS_Aro under control of a pAl promoter and lactose (lac) operator. […]
Single colonies were picked for growth in Luria Bertani (LB) medium in 384-well plates containing with carbenicillin (Carb). […] Cells pellets were stored at −20° C. until ready for assay. […]
Reactions were initiated by addition of cell lysate, then incubated for 20 mins or 1 hr for hexanoyl-CoA and butyryl-CoA, respectively. […] Filtrates analyzed by LC/MS for the quantification of olivetolic acid (OLA), olivetol (OL), and pentyl diacetic acid lactone (PDAL); or divarinic acid (DVA), divarinol (DVL), and propyl diacetic acid lactone (Propyl-DAL). […]
Under the screening conditions described above, products are detected in the low or sub μM range. […]

As to `CCCCCc1cc(O)cc(=O)o1` [PDAL, pentyl diacetic acid lactone], the “effect on activity of the enzyme” value in data set [1] and in data set [2] was “not inhibited” in each case. Besides, on OLS from C. sativa, the “inhibition of the activity of OLS from C. sativa” value is “inhibitory, but to a somewhat lesser extent”.

B1: QDX46968.1: Type-III PKS enzyme (OLS) from Anoectochilus roxburghii, designated OLS_Aro (protein, listed as Anoectochilus roxburghii)
chain: MPSLESIRKAPRADGLASILAIGRANPDNFMEQSSFPDFFFRITGSDHLVDLKKKFQRICDRTAIRKRHFVWNEEFIKANPCFSTFMDNSLNVRQEVAIREIPKLGAEAATKAIKEWGQPKSRITHLIFCTTSGMDLPGADYQLTRILGLNPNVERVMLYQQGCFAGGTTLRLAKCLAESRKGARVLVVCAETTTVLFRAPSEEHQEDLVTQALFADGASAVIVGADPDEEAHEKASFVIFSTSQVLLPDSEGAIGGHVSEGGLLATLHRDVPQLVSKNVGKCLEEAFTPLGISDWNSIFWVPHPGGRAILDQIEERVGLKPEKLTTSRHVLAEYGNMSSVCVHFVLDEMRKKSSKEGKATTGEGLEWGVLFGFGPGLTVETVVLRSVPL
modifications: (1)..(390) QDX46968.1
For the molecule B1, the “specific activity to form olivetolic acid compared with OLS from C. sativa” value in data set [3] is “higher specific activities”. Besides, in data set [4], the Total amounted to 1956 µM, the “levels of OLA relative to the E. coli strain with OLS from C. sativa” value is recorded as “over two-fold”, the OL was 597 µM and the OLA amounted to 823 µM. For the same molecule, in data set [4], the PDAL was determined as 536 µM. Further, in data set [5], the “products produced by strains with chromosomally expressed enzyme” value is “produced olivetol (OL), olivetolic acid (OLA) and pentyl diacetic acid lactone (PDAL)”; the Total is 276 µM; the OL came out at 98 µM; the OLA amounted to 136 µM. Moreover, in data set [5], the PDAL amounted to 42 µM. Moreover, the reaction products entry in data set [6] is “the major products are OL and PDAL or DVL and Propyl-DAL”.

B2: AAZ32094.1: Type-III PKS enzyme from Oncidium hybrid cultivar (protein)
chain: MPSLESVKNAKRAEGFASILAIGRANPEHFIEQSSYPDFFFRVTNSEHLVALKKKFQRICDKTAIRKRHFAWNEELLTTNSCFQTFMGNSLNVRQEFAIREIPKLGAQAANKAIQEWGQPKSRITHLIFCTTSGMDLPGADYQLTEILGLNPNVERVMLYQQGCFAGGTTLRLAKCLAESRKGARVLVVCAETTTVLFRAPSEEHQDDLVTQALFADGASALIVGADPDEAAHERASFIIVSTSQVLLPDSAGAIGGHVSEGGLLATLHRDVPQIVSKNVGKCLEEAFTPLGISDWNSIFWVPHPGGRAILDQIEERVGLKPEKLFISRHVLAEYGNMSSVCVHFALDEMRKRSAKEGKATTGEGLDWGVLFGFGPGLTVETVVLHSVPVTN
modifications: Oncidium hybrid cultivar; (1)..(392) AAZ32094.1
On to B2, for which the “specific activity to form olivetolic acid compared with OLS from C. sativa” value in data set [3] is recorded as “higher specific activities”. In data set [4], the Total came out at 1781 µM, the “levels of OLA relative to the E. coli strain with OLS from C. sativa” value is listed as “over two-fold”, the OL was determined as 672 µM and the OLA is 751 µM. Moreover, the PDAL in data set [4] came out at 358 µM. In addition, in data set [5], the “products produced by strains with chromosomally expressed enzyme” value is “produced olivetol (OL), olivetolic acid (OLA) and pentyl diacetic acid lactone (PDAL)”; the Total was found to be 1038 µM; the OL turned out to be 355 µM; the OLA amounted to 534 µM. The PDAL in data set [5] was 149 µM.
